Reference: patent US20250002610A1 (Genmab, published 2025)

Experiments:
[1] = target: T1, human DR4 (Death Receptor 4), cell surface expressed on human tumor cell lines (human, UniProt O00220 24-468); assay: flow cytometry, DLD-1 cells, n = 2
T1 construct: also called TNFRSF10A; TRAIL-R1
T1 sequence: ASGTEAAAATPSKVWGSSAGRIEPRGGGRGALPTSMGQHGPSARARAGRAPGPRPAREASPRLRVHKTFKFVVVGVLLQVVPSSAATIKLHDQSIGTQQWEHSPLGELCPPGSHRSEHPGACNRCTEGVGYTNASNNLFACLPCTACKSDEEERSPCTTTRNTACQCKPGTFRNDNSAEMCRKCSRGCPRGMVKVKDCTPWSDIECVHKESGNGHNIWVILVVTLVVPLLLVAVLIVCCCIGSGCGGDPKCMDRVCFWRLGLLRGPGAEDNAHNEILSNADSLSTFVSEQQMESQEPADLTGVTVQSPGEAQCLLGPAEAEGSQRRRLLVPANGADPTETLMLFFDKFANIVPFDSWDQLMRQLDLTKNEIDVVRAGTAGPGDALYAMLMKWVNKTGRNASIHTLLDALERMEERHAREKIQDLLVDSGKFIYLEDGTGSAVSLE

[2] = target: T1, human DR4 (Death Receptor 4), cell …; assay: flow cytometry, PANC-1 cells, n = 1
[3] = target: T1, human DR4 (Death Receptor 4), cell …; assay: flow cytometry, PANC-1 cells, n = 2
[4] = target: T1, human DR4 (Death Receptor 4), cell …; assay: flow cytometry, PANC-1 cells, n = 3
[5] = target: T1, human DR4 (Death Receptor 4), cell …; assay: flow cytometry, MDA-MB-231 cells, average ± SEM
[6] = target: T2, cynomolgus monkey FAPα on Expi293F cells (cynomolgus monkey (Macaca fascicularis), UniProt Q12884 1-760 (human entry)); assay: flow cytometry, Expi293F cells expressing cynomolgus monkey FAPα, n = 1
T2 sequence: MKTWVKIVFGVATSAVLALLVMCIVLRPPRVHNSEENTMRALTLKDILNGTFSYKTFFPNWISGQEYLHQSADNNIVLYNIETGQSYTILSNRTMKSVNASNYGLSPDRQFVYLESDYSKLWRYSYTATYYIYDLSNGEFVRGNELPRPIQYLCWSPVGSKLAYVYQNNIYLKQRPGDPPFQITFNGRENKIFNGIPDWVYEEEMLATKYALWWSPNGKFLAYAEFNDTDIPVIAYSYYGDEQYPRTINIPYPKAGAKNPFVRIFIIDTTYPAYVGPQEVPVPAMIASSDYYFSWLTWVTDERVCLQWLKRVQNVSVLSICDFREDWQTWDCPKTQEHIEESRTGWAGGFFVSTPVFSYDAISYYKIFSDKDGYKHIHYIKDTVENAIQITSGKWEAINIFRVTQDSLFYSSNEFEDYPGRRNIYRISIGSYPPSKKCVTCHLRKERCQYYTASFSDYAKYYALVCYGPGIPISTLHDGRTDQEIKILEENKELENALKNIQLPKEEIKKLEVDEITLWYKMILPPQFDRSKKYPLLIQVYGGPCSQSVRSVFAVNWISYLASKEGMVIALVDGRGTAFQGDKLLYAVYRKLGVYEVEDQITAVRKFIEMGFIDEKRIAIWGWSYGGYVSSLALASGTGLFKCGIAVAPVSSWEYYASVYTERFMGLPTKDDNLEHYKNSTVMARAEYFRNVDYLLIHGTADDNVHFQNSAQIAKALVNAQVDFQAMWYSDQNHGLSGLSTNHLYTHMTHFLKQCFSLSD
Procedure: (§1) Binding of BisG1-FAPα-FERL/DR4-FERR, BisG1-FAPα-FEAL/b12-FEAR and IgG1-FAPα-FERL to FAPα of species commonly used for nonclinical toxicology studies was assessed by flow cytometry using Expi293F cells transiently expressing FAPα from different animal species. IgG1-b12 was included as negative control.
(§2) Expi293F cells expressing recombinant FAPα from various species (human, cynomolgus monkey, dog, pig, rat or mouse) were seeded (20,000 cells/well) in 96-Well round bottom plates (Greiner Bio-one, Cat #650101). Antibody dilutions were prepared using FACS buffer, consisting of PBS (Capricorn Scientific, Cat #PBS-10XA, diluted to 1×PBS in distilled water)+1% BSA (Roche, Cat #10735086001)+0.02% Sodium Azide (Bio-World, Cat #41920044-3). Plates were centrifuged, supernatant was removed, and cells were resuspended in 100 μL of antibody dilutions (concentration range 30-0.00017 μg/mL with three-fold serial dilutions using FACS buffer) of BisG1-FAPα-FERL/DR4-FERR, BisG1-FAPα-FEAL/b12-FEAR, IgG1-FAPα-FERL and IgG1-b12 and incubated for 30 min at 4° C. […] After 30 min incubation at 4° C., cells were washed with FACS buffer and resuspended in FACS buffer supplemented with TO-PRO-3 Iodide viability marker (Invitrogen, Cat #T3605, diluted 1:4,000). Antibody binding to viable cells (gMFI of PE on TO-PRO-3 negative cells) was analyzed by flow cytometry on a FACS Celesta and FACS_Diva software (first two experiments) or iQue® 3 and FlowJo software (last experiment). gMFI was determined and visualized using GraphPad Prism. Binding curves were analyzed using nonlinear regression analysis. The concentration (pg/mL) at which 50% of the maximal effect was observed (EC₅₀) was derived from the fitted curves.

[7] = target: T2, cynomolgus monkey FAPα on Expi293F cells; assay: flow cytometry, Expi293F cells expressing cynomolgus monkey FAPα, average ± SEM
Procedure: as §1, §2

B1: BisG1-FAPα-FERL/DR4-FERR (bispecific antibody, human IgG1, kappa, lambda)
heavy 1: EVQLLESGGGLVQPGGSPRLSCEASGFTFSSYALSWVRQAPGKGLEWVSAISGSGGGRYYADSVKGRFTISRDNSKNTLFLQMNSLRAEDTAVYYCAKEGYSSSGTYWDHWGQGTLVTVSSASTKGPSVFPLAPSSKSTSGGTAALGCLVKDYFPEPVTVSWNSGALTSGVHTFPAVLQSSGLYSLSSVVTVPSSSLGTQTYICNVNHKPSNTKVDKRVEPKSCDKTHTCPPCPAPEFERGPSVFLFPPKPKDTLMISRTPEVTCVVVDVSHEDPEVKFNWYVDGVEVHNAKTKPREEQYNSTYRVVSVLTVLHQDWLNGKEYKCKVSNKALPAPIEKTISKAKGQPREPQVYTLPPSREEMTKNQVSLTCLVKGFYPSDIAVEWESNGQPENNYKTTPPVLDSDGSFLLYSKLTVDKSRWQQGNVFSCSVMHEALHNHYTQKSLSLSPG
light 1: AIQMTQSPSSVSASVGDRVTITCRASQGVSSWLAWYQQKPGRAPKLLIYVASTLQSGVPSRFSGSGSGTDFTLTINSLQPEDFATYYCQQANSFPPTFGQGTRLEMKRTVAAPSVFIFPPSDEQLKSGTASVVCLLNNFYPREAKVQWKVDNALQSGNSQESVTEQDSKDSTYSLSSTLTLSKADYEKHKVYACEVTHQGLSSPVTKSFNRGEC
heavy 2: QVQLQESGPGLVKPSGTLSLTCAVSGGSISSYSWWSWIRQPPGKGLEWIGELYHSGSTNYNPSLKSRVTISVDKSKNQFSLKLRSVTAADTAVYYCVRGVATIDYWGQGTLVTVSSASTKGPSVFPLAPSSKSTSGGTAALGCLVKDYFPEPVTVSWNSGALTSGVHTFPAVLQSSGLYSLSSVVTVPSSSLGTQTYICNVNHKPSNTKVDKRVEPKSCDKTHTCPPCPAPEFERGPSVFLFPPKPKDTLMISRTPEVTCVVVDVSHEDPEVKFNWYVDGVEVHNAKTKPREEQYNSTYRVVSVLTVLHQDWLNGKEYKCKVSNKALPAPIEKTISKAKGQPREPQVYTLPPSREEMTKNQVSLTCLVKGFYPSDIAVEWESNGQPENNYKTTPPVLDSDGSFFLYSRLTVDKSRWQQGNVFSCSVMHEALHNHYTQKSLSLSPG
light 2: QSALTQPPSASGSPGQSVTISCTGTSSDVGGYNFVSWYQQDPGKAPKLLIYEVTKRPSGVPDRFSGSKSGNTASLTVSGLQAEDEADYYCSSYAGSNNVMFGGGTKLTVLGQPKAAPSVTLFPPSSEELQANKATLVCLISDFYPGAVTVAWKADSSPVKAGVETTTPSKQSNNKYAASSYLSLTPEQWKSHRSYSCQVTHEGSTVEKTVAPTECS
notes: Human IgG1 bispecific made by controlled Fab-arm exchange of IgG1-FAPα-FERL and IgG1-DR4-FERR; monovalent for FAPα and for DR4; also called GEN1057
- EC50 [1]: 0.73 µg/mL
- EC50 [2]: 1.8 µg/mL
- EC50 [3]: 1.89 µg/mL
- EC50 [4]: 1.4 µg/mL
- EC50 [5]: 1.18 µg/mL
- EC50 [6]: 0.24 µg/mL
- EC50 [7]: 0.25 µg/mL
